Blank lines part the entries; values can stand above or below the binder they belong to.
Assays:
Assay in all cases: FACS staining of transfected 293 cells with Fc fusion protein, labeled anti-human IgG Fc detection
[1] = target: T1, CTLA4-huFC (extracellular region of murine CTLA4 fused to a human Fc region of an IgG1 antibody) (murine; human, UniProt P09793 36-161; P01857 99-330 = IgG part, limits assumed)
T1 construct: extracellular domain;domain: Fc region; Made in transfected cells and purified by Protein A chromatography
T1 sequence (P09793 other isoform, or with tags, fused parts or gaps limits assumed): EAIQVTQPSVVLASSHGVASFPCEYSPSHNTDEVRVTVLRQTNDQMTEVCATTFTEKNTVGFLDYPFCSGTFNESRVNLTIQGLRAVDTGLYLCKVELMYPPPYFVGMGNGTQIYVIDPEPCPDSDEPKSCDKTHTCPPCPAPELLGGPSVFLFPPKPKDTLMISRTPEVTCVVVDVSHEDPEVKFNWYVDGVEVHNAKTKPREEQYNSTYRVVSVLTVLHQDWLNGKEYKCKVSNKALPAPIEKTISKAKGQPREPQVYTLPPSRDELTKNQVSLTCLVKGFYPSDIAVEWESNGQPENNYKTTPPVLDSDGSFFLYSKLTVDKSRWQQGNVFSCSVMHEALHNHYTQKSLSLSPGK
Experimental: (§1) Full length versions of each of three murine cDNAs (encoding BTL-II, B7RP-1, CD80) were inserted into a vector appropriate for expression. About 10 μg of each of these constructs, along with an empty vector, were used separately to transfect 293 cells. Two days post transfection, about one million cells from each of the four transfections were stained with each of the fusion proteins described above. Bound protein was detected using a fluorescently labeled antibody against the human IgG Fc region. The stained cells were analyzed by FACS.

[2] = target: T2, ICOS-huFC (extracellular region of murine ICOS fused to a human Fc region from an IgG1 antibody) (murine; human, UniProt Q9WVS0 21-144; P01857 99-330 = IgG part, limits assumed)
T2 construct: extracellular domain;domain: Fc region; Made in transfected cells and purified by Protein A chromatography
T2 sequence (Q9WVS0 other isoform, or with tags, fused parts or gaps limits assumed): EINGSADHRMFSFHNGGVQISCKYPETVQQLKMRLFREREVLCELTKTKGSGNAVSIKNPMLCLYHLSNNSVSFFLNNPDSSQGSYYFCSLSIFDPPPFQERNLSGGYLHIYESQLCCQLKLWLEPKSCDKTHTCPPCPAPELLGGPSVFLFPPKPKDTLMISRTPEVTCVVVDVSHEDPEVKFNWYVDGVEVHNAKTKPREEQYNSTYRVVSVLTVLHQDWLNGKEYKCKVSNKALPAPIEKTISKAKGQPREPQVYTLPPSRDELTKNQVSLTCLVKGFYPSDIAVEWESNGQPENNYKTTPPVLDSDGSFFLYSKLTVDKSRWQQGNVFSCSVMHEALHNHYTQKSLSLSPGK
Experimental: as §1

[3] = target: T3, mCD28-huFC (extracellular region of murine CD28 fused to a human Fc region from an IgG1 antibody) (murine; human, UniProt P31041 20-150; P01857 100-330 = IgG part)
T3 construct: extracellular domain;domain: Fc region; Bought from R & D Systems
T3 sequence (P31041 other isoform, or with tags, fused parts or gaps limits assumed): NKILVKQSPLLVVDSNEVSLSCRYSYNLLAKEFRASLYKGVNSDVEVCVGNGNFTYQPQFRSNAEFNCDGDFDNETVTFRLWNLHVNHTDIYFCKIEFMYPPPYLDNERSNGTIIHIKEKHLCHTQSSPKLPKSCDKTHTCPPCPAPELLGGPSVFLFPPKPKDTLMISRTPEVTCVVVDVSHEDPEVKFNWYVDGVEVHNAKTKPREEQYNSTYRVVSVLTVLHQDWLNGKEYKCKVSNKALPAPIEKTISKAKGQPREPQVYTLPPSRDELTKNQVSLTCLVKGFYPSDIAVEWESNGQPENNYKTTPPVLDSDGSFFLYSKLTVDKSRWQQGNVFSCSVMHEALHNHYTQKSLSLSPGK
Experimental: as §1

[4] = target: T4, PD1-huFC (extracellular region of murine PD-1 fused to a human Fc region of an IgG1 antibody) (murine; human, UniProt Q02242 25-169; P01857 100-330 = IgG part)
T4 construct: extracellular domain;domain: Fc region; Bought from R & D Systems
T4 sequence (Q02242 other isoform, or with tags, fused parts or gaps limits assumed): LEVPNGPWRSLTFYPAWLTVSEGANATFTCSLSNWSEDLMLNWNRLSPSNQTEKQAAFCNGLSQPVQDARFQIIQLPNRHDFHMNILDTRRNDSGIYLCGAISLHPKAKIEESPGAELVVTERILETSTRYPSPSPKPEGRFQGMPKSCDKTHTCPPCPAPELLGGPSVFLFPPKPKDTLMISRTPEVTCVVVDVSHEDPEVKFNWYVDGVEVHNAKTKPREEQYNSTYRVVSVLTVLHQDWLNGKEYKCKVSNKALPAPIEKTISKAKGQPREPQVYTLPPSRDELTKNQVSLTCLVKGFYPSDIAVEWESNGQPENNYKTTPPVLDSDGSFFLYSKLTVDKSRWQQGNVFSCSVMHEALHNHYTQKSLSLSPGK
Experimental: as §1

- binding result [1]: no binding
- binding result [2]: binds
- binding result [3]: no binding
- binding result [4]: no binding
B1: murine B7RP-1 (full length, expressed on transfected 293 cells) (ligand, UniProt Q9JHJ8 44-322, looked up)
chain: ASAETEVGAMVGSNVVLSCIDPHRRHFNLSGLYVYWQIENPEVSVTYYLPYKSPGINVDSSYKNRGHLSLDSMKQGNFSLYLKNVTPQDTQEFTCRVFMNTATELVKILEEVVRLRVAANFSTPVISTSDSSNPGQERTYTCMSKNGYPEPNLYWINTTDNSLIDTALQNNTVYLNKLGLYDVISTLRLPWTSRGDVLCCVENVALHQNITSISQAESFTGNNTKNPQETHNNELKVLVPVLAVLAAAAFVSFIIYRRTRPHRSYTGPKTVQLELTDHA
notes: whole, on cells; also called B7h; B7-H2

- binding result [1]: no binding
- binding result [2]: no binding
- binding result [3]: no binding
- binding result [4]: no binding
B2: murine BTL-II (full length, expressed on transfected 293 cells) (ligand)
chain: FRVVGPNLPILAKVGEDALLTCQLLPKRTTAHMEVRWYRSDPAMPVIMYRDGAVVTGLPMEGYGGRAEWMEDSTEEGSVALKIRQVQPSDDGQYWCRFQEGDYWRETSVLLQVAALGSSPNIHVEGLGEGEVQLVCTSRGWFPEPEVHWEGIWGEKLMSFSENHVPGEDGLFYVEDTLMVRNDSVETISCFIYSHGLRETQEATIALSERLQTELVSVSVIGHSQPSPVQVGENIELTCHLSPQTDAQNLEVRWLRSRYYPAVHVYANGTHVAGEQMVEYKGRTSLVTDAIHEGKLTLQIHNARTSDEGQYRCLFGKDGVYQEARVDVQVTAVGSTPRITREVLKDGGMQLRCTSDGWFPRPHVQWRDRDGKTMPSFSEAFQQGSQELFQVETLLLVTNGSMVNVTCSISLPLGQEKTARFPLSDSKIALLWMTLPVVVLPLAMAMDLIKVKRRRRTNEQTHSSNQENNKNDENHRRRLPSDERLR

- binding result [1]: binds
- binding result [2]: no binding
- binding result [3]: binds
- binding result [4]: no binding
B3: murine CD80 (full length, expressed on transfected 293 cells) (ligand, UniProt Q00609 38-306, looked up)
chain: VDEQLSKSVKDKVLLPCRYNSPHEDESEDRIYWQKHDKVVLSVIAGKLKVWPEYKNRTLYDNTTYSLIILGLVLSDRGTYSCVVQKKERGTYEVKHLALVKLSIKADFSTPNITESGNPSADTKRITCFASGGFPKPRFSWLENGRELPGINTTISQDPESELYTISSQLDFNTTRNHTIKCLIKYGDAHVSEDFTWEKPPEDPPDSKNTLVLFGAGFGAVITVVVIVVIIKCFCKHRSCFRRNEASRETNNSLTFGPEEALAEQTVFL
notes: whole, on cells; also called B7-1

Source: patent US20040209289A1 (IMMUNEX, published 2004)
